Source: US20240252614A1 (Pfizer, published 2024)

Tests used:
[1] = target: T1, PIV1 F literature prefusion comparison (PIV1); assay: BLI, no stress;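 note: binding of thermally stressed PIV1 F mutant supernatant to mAb on AHC biosensors for 5 min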
T1 construct: F113G, F114S, A466I, S473I (Stewart-Jones et al. 2018)
Protocol: (§1) The OCTET HTX (Sartorius, Gottingen, Germany) instrument was used to evaluate the expression and conformational integrity for each mutant. All measurements were conducted at 30° C. temperature in 96-well black plates (Corning, Corning, NY) with a final volume of 240 μL per well at a constant agitation rate of 1000 RPM.
(§2) Conformation integrity of PIV1 F protein mutants were evaluated by a thermal stress experiment. Crude cell culture supernatants were normalized based on the results of the titer quantitation and then incubated for 1 hour at room temperature and two higher temperatures. For the initial testing of PIV1 mutants, the two temperatures were 50° C. and 53° C. […] Anti-Human IgG Fc Capture (AHC) biosensors were first equilibrated in PB for before being dipped into more PB to establish the initial baseline. […] The mAb-bound biosensors were then dipped into the thermal stresses cell culture supernatants for 5 minutes.

PIV1047 = target: T2, PIV1047 (PIV1); assay: BLI, no stress;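 note: binding of thermally stressed PIV1 F mutant supernatant to mAb on AHC biosensors for 5 min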
T2 construct: F113G, F114S, Q92C-G134C, A466L, S473L, A480L
Protocol: as §1, §2

PIV1048 = target: T3, PIV1048 (PIV1); assay: BLI, no stress;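 note: binding of thermally stressed PIV1 F mutant supernatant to mAb on AHC biosensors for 5 min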
T3 construct: Q92C-G134C, A466L, S473L, A480L
Protocol: as §1, §2

PIV1049 = target: T4, PIV1049 (PIV1); assay: BLI, no stress;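 note: binding of thermally stressed PIV1 F mutant supernatant to mAb on AHC biosensors for 5 min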
T4 construct: Q92C-G134C, A466L, S473L
Protocol: as §1, §2

PIV1050 = target: T5, PIV1050 (PIV1); assay: BLI, no stress
T5 construct: F113G, F114S, Q92C-G134C, A466V, S473V, A480V
Protocol: as §1, §2

PIV1051 = target: T6, PIV1051 (PIV1); assay: BLI, no stress
T6 construct: Q92C-G134C, A466V, S473V, A480V
Protocol: as §1, §2

PIV1052 = target: T7, PIV1052 (PIV1); assay: BLI, no stress
T7 construct: Q92C-G134C, A466V, S473V; also called PV1052
Protocol: as §1, §2

PIV1053 = target: T8, PIV1053 (PIV1); assay: BLI, no stress
T8 construct: F113G, F114S, A466L, S473L, A480L, G134A
Protocol: as §1, §2

PIV1054 = target: T9, PIV1054 (PIV1); assay: BLI, no stress
T9 construct: A466L, S473L, A480L, G134A
Protocol: as §1, §2

PIV1055 = target: T10, PIV1055 (PIV1); assay: BLI, no stress
T10 construct: A466L, S473L, G134A
Protocol: as §1, §2

PIV1056 = target: T11, PIV1056 (PIV1); assay: BLI, no stress
T11 construct: F113G, F114S, A466L, S473L, A480L, Q92A, G134A
Protocol: as §1, §2

PIV1057 = target: T12, PIV1057 (PIV1); assay: BLI, no stress
T12 construct: A466L, S473L, A480L, Q92A, G134A
Protocol: as §1, §2

PIV1058 = target: T13, PIV1058 (PIV1); assay: BLI, no stress
T13 construct: A466L, S473L, Q92A, G134A
Protocol: as §1, §2

PIV1059 = target: T14, PIV1059 (PIV1); assay: BLI, no stress
T14 construct: F113G, F114S, A466L, S473L, A480L, G134A, Q92L
Protocol: as §1, §2

PIV1060 = target: T15, PIV1060 (PIV1); assay: BLI, no stress
T15 construct: Q92L, G134A, A466L, S473L, A480L
Protocol: as §1, §2

PIV1061 = target: T16, PIV1061 (PIV1); assay: BLI, no stress
T16 construct: Q92L, G134A, A466L, S473L
Protocol: as §1, §2

PIV1062 = target: T17, PIV1062 (PIV1); assay: BLI, no stress
T17 construct: F113G, F114S, A466L, S473L, A480L, Q92A, G134L
Protocol: as §1, §2

PIV1063 = target: T18, PIV1063 (PIV1); assay: BLI, no stress
T18 construct: A466L, S473L, A480L, Q92A, G134L
Protocol: as §1, §2

PIV1064 = target: T19, PIV1064 (PIV1); assay: BLI, no stress
T19 construct: F113G, F114S, Q92C-G134C, A466I, S473I, A480L
Protocol: as §1, §2

PIV1065 = target: T20, PIV1065 (PIV1); assay: BLI, no stress
T20 construct: F113G, F114S, Q92C-G134C, A466I, S473I
Protocol: as §1, §2

PIV1066 = target: T21, PIV1066 (PIV1); assay: BLI, no stress
T21 construct: A466I, S473I, A480L, Q92L, G134A
Protocol: as §1, §2

PIV1067 = target: T22, PIV1067 (PIV1); assay: BLI, no stress
T22 construct: F113G, F114S, Q92C-G134C, A466I, S473I, A480I
Protocol: as §1, §2

PIV1068 = target: T23, PIV1068 (PIV1); assay: BLI, no stress
T23 construct: A466I, S473I, A480I, Q92L, G134A
Protocol: as §1, §2

[2] = target: T1, PIV1 F literature prefusion comparison; assay: BLI, 56C stress
Protocol: as §1, §2

[3] = target: T24, stabilized hPIV1 F protein trimer in pre-fusion conformation (human parainfluenza virus 1); assay: SPR (Biacore 8K+), mAb captured on Protein A chip
T24 construct: also called preF-hPIV1; HPIV1 pre-fusion F protein
Description: (§3) To avoid conformation changes of F protein while coupling to SPR sensor chip an orientation-specific binding of antibodies through constant (Fc) region was chosen to determine affinity of the newly discovered antibodies using Biacore 8K+ system (Cytiva) and corresponding InSight Software (Cytiva) for analysis. […] Unbound antibodies were washed off with 1×HBS-P buffer. […] Dissociation time was set to 600 seconds to allow for elongated fitting model. Chip was regenerated with two cycles of 4.5M MgCI2 solution. […] Affinity of antibodies were reported in molar concentrations as ratio of dissociation and association.

hMPV079 = target: T25, hMPV079 (hMPV A, UniProt Q6WB98 19-102); assay: BLI, 58C stress
T25 construct: T411C-Q434C, A140C-S149C, A459P
Protocol: as §1
(§4) Conformation integrity of hMPV A F protein mutants were evaluated by thermal stress experiments. Crude cell culture supernatants were normalized based on the results of the titer quantitation and then incubated for 1 hour at room temperature and two higher temperatures. […] Anti-Human IgG Fc Capture (AHC) biosensors were first equilibrated in PB before being dipped into more PB to establish the initial baseline. […] The mAb-bound biosensors were then dipped into the thermal stressed cell culture supernatants for 5 minutes. The kinetics analysis was done by OCTET data analysis software (version 12.0, Sartorius) based on curve fitting of the entire associate step.

hMPV081 = target: T26, hMPV081 (hMPV A, UniProt Q6WB98 19-102); assay: BLI, 58C stress
T26 construct: T411C-Q434C, A140C-S149C, T365I
Protocol: as §1, §4

hMPV084 = target: T27, hMPV084 (hMPV A, UniProt Q6WB98 19-102); assay: BLI, 58C stress
T27 construct: T411C-Q434C, L141C-A161C
Protocol: as §1, §4

hMPV087 = target: T28, hMPV087 (hMPV A, UniProt Q6WB98 19-102); assay: BLI, 58C stress
T28 construct: T411C-Q434C, L141C-A161C, T365I
Protocol: as §1, §4

hMPV090 = target: T29, hMPV090 (hMPV A, UniProt Q6WB98 19-102); assay: BLI, 58C stress
T29 construct: T411C-Q434C, L141C-A161C, A459P, G239A, T49I, S149T, T365I
Protocol: as §1, §4

hMPV097 = target: T30, hMPV097 (hMPV A, UniProt Q6WB98 19-102); assay: BLI, 58C stress
T30 construct: T411C-Q434C, E146C-T160C, A459P, G239A, T49I, S149T, T365I
Protocol: as §1, §4

hMPV A F WT Control = hMPV A F WT Control (hMPV A, UniProt Q6WB98 19-102); assay: BLI, 58C stress
Protocol: as §1, §4

[4] = target: T31, stabilized hMPV F protein trimer in pre-fusion conformation (human metapneumovirus); assay: SPR (Biacore 8K+), mAb captured on Protein A chip
T31 construct: also called preF-hMPV; hMPV pre-fusion F protein
Description: as §3

B1: PIV1-8 mAb (antibody, V domains shown)
VH: QVQLVQSGAEVKKPGSSVKVSCEASGGTFSNYVISWVRQAPGQGLEWMGGIIPVFATAKYAQKFQGRVTIIADQSTNTAYLELSSLRSDDTAVYFCASVDSGGTWWDAFAIWGQGTMVTVSS
VL: QAVVTQPRSVSGSPGQAVTISCTGTSSDVGGYNYVSWYQHHPGKAPKLIIYDVTKRPSGVPDRFSGSKSGNTASLTISGLQTEYEADYYCCSYAGSYTLVFGGGTKLTVLG
notes: human IgG1; also called hPIV1-8 mAb; hPIV1-8
[1]
  Response Shift: 0.709 nm
PIV1047
  Response Shift: 0.79 nm
PIV1048
  Response Shift: 0.737 nm
PIV1049
  Response Shift: 0.636 nm
PIV1050
  Response Shift: 0.848 nm
PIV1051
  Response Shift: 0.725 nm
PIV1052
  Response Shift: 0.67 nm
PIV1053
  Response Shift: 0.857 nm
PIV1054
  Response Shift: 0.764 nm
PIV1055
  Response Shift: 0.757 nm
PIV1056
  Response Shift: 0.739 nm
PIV1057
  Response Shift: 0.718 nm
PIV1058
  Response Shift: 0.688 nm
PIV1059
  Response Shift: 0.841 nm
PIV1060
  Response Shift: 0.584 nm
PIV1061
  Response Shift: 0.619 nm
PIV1062
  Response Shift: 0.619 nm
PIV1063
  Response Shift: -0.116 nm
PIV1064
  Response Shift: 0.912 nm
PIV1065
  Response Shift: 0.809 nm
PIV1066
  Response Shift: 0.642 nm
PIV1067
  Response Shift: 0.849 nm
PIV1068
  Response Shift: 0.628 nm
[2]
  Response Shift: 0.458 nm
[3]
  Kd: 885 pM

B2: hMPV-2 mAb (antibody, V domains shown)
VH: QVQLQQSGAEVKKPGASVKVSCKASGYTFTSYGISWVRQAPGQGLEWMGWISGYNGNTNYAQTFQGTFTMTTDTSTSTAYMELRRLRSGDTAVYYCARDRYYASGSYNGMDVWGQGTTVTVSS
VL: QSALTQPPSASGAPGQRVTVSCSGSSSNVGSSSVYWYQQLPGTAPKLLIYRNNQRPSGVPDRFSGSKSGTSASLAISGLRSEDEADYYCAAWDDSLSGWVFGGGTKLTVLG
notes: human IgG1
hMPV079
  Response Shift: 0.736 nm
hMPV081
  Response Shift: 0.804 nm
hMPV084
  Response Shift: 0.183 nm
hMPV087
  Response Shift: 0.763 nm
hMPV090
  Response Shift: 0.77 nm
hMPV097
  Response Shift: 0.905 nm
hMPV A F WT Control
  Response Shift: 0.015 nm
[4]
  Kd: 685 pM
